Data as given in paper doi:10.1101/2020.04.28.064113 (bioRxiv, 2020).

Target: Ubiquitin (wild-type), 15N isotopically labelled (UniProt P0CG47 1-76)
Assay: NMR titration

binding result: binds
B1: stapled Cys-Ubq3-Cys peptide (stapled xenonucleus) (peptide)
peptide: CMQIFVKTLTGKTITLEVC
modifications: disulphide bridge between the two terminal cysteines
